Changes are numbered by the printed parent chain.
T1: huCTLA-4 ECD (his-tag) (human, UniProt P16410 37-162)
T1 construct: also called HX1 hCTLA4 his; HX1 huCTLA4 his; not shown: his-tag
T1 sequence: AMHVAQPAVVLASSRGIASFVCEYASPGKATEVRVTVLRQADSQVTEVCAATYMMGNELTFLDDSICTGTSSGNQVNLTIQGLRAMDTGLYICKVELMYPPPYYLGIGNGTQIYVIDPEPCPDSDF

B1: huJS007-48 (antibody, human IgG1, kappa, V domains shown)
VH: QVQLQESGPGLVKPSQTLSLTCTVSAYSITSGYYWNWIRQHPGKGLEWIGYIGYDGSNNYNPSLKSRVTISRDTSKNQFSLKLSSVTAADTAVYYCARDYYSGYFDSWGQGTTLTVSS
VL: DIQMTQSPSSLSASVGDRVTITCRASQNVGTYVAWYQQKPGKAPKPLIYSTSYRYSGVPSRFSGSGSGTDFTLTISSLQPEDFATYFCHQYDTYPLTFGAGTKLELKR
B2: HuJS007-51 (antibody, V domains shown)
VH: B1 VH
VL: DIVMTQSPDSLAVSLGERATINCKASQNVGTYVAWYQQKPGQPPKLLIYSTSYRYSGVPDRFSGSGSGTDFTLTISSLQAEDVAVYYCHQYDTYPLTFGQGTKLEIK
notes: 4B7 VH2-2 + 4B7VL6; constant regions not specified
B3: HuJS007-101 (antibody, V domains shown)
VH: B1 VH with T23A, A26G, H41P, S66N, I70M, R72V, A89V, L114V
VL: DIQMTQSPSSLSASVGDRVTITCRASQNVGTYVAWYQQKPGKVPKPLIYSTSYRYSGVPSRFSGSGSGTDFTLTISSLQPEDVATYFCHQYDTYPLTFGAGTKLELK
notes: 4B7 VH2-5 + 4B7VL2; constant regions not specified
B4: HuJS007-65 (antibody, V domains shown)
VH: B1 VH with T23A
VL: B3 VL
notes: 4B7 VH2-4 + 4B7VL2; constant regions not specified
B5: HuJS007-102 (antibody, V domains shown)
VH: B1 VH with T23A, A26G, H41P, S66N, I70M, R72V, A89V, L114V
VL: B3 VL with V43A, V83F
notes: 4B7 VH2-5 + 4B7VL3; constant regions not specified
B6: HuJS007-64 (antibody, V domains shown)
VH: B1 VH with T23A
VL: B2 VL with L46P, Y87F, Q100A, I106L
notes: 4B7 VH2-4 + 4B7VL1; constant regions not specified
B7: HuJS007-66 (antibody, V domains shown)
VH: B1 VH with T23A
VL: B3 VL with V43A, V83F
notes: 4B7 VH2-4 + 4B7VL3; constant regions not specified
B8: HuJS007-74 (antibody, V domains shown)
VH: B1 VH with T23A, A26G, T30S, H41P, N59Y, I70M, R72V, A89V, D99N, L114V
VL: B3 VL
notes: 1A5 VH5 + 4B7VL2; constant regions not specified
B9: HuJS007-53 (antibody, V domains shown)
VH: B1 VH
VL: B2 VL with L46P, Y87F
notes: 4B7 VH2-2 + 4B7VL8; constant regions not specified
B10: HuJS007-71 (antibody, V domains shown)
VH: B1 VH with T23A
VL: B2 VL with L46P, Y87F
notes: 4B7 VH2-4 + 4B7VL8; constant regions not specified
B11: HuJS007-84 (antibody, V domains shown)
VH: QVQLQESGPGLVKPSQTLSLTCAVSGYSISSGYYWNWIRQFPGKGLEWMGYIGYDGSNYYNPSLKNRVTMSVDTSKNQFSLKLSSVTAVDTAVYYCARNYYSGYFDSWGQGTTVTVSS
VL: B3 VL with V43A, V83F
notes: 1A5 VH6 + 4B7VL3; constant regions not specified
B12: HuJS007-100 (antibody, V domains shown)
VH: B11 VH with S30T, F41P, M49I, Y59N, N99D
VL: B2 VL with L46P, Y87F, Q100A, I106L
notes: 4B7 VH2-5 + 4B7VL1; constant regions not specified
B13: HuJS007-73 (antibody, V domains shown)
VH: B11 VH with F41P, M49I, N66S
VL: B2 VL with L46P, Y87F, Q100A, I106L
notes: 1A5 VH5 + 4B7VL1; constant regions not specified
B14: HuJS007-103 (antibody, V domains shown)
VH: B11 VH with S30T, F41P, M49I, Y59N, N99D
VL: B3 VL with S10F, V43A, D70E, V83F
notes: 4B7 VH2-5 + 4B7VL4; constant regions not specified
B15: HuJS007-46 (antibody, V domains shown)
VH: B1 VH
VL: B2 VL with L46P, Y87F, Q100A, I106L
notes: 4B7 VH2-2 + 4B7VL1; constant regions not specified
B16: HuJS007-59 (antibody, V domains shown)
VH: B1 VH with Q16E, A26G, H41P
VL: B3 VL with R24Q, V43A, L73F, V83I
notes: 4B7 VH2-3 + 4B7VL5; constant regions not specified
B17: HuJS007-57 (antibody, V domains shown)
VH: B1 VH with Q16E, A26G, H41P
VL: B3 VL with V43A, V83F
notes: 4B7 VH2-3 + 4B7VL3; constant regions not specified
B18: HuJS007-69 (antibody, V domains shown)
VH: B1 VH with T23A
VL: B2 VL
notes: 4B7 VH2-4 + 4B7VL6; constant regions not specified
B19: HuJS007-52 (antibody, V domains shown)
VH: B1 VH
VL: EIVMTQSPATLSVSPGERATLSCRASQNVGTYVAWYQQKPGQAPRPLIYSTSYRYSGIPARFSGSGSGTEFTLTISSLQSEDFAVYYCHQYDTYPLTFGQGTKLEIK
notes: 4B7 VH2-2 + 4B7VL7; constant regions not specified
B20: HuJS007-104 (antibody, V domains shown)
VH: B11 VH with S30T, F41P, M49I, Y59N, N99D
VL: B3 VL with R24Q, V43A, L73F, V83I
notes: 4B7 VH2-5 + 4B7VL5; constant regions not specified
B21: HuJS007-60 (antibody, V domains shown)
VH: B1 VH with Q16E, A26G, H41P
VL: B2 VL
notes: 4B7 VH2-3 + 4B7VL6; constant regions not specified
B22: HuJS007-58 (antibody, V domains shown)
VH: B1 VH with Q16E, A26G, H41P
VL: B3 VL with S10F, V43A, D70E, V83F
notes: 4B7 VH2-3 + 4B7VL4; constant regions not specified
B23: HuJS007-76 (antibody, V domains shown)
VH: B11 VH with F41P, M49I, N66S
VL: B3 VL with S10F, V43A, D70E, V83F
notes: 1A5 VH5 + 4B7VL4; constant regions not specified
B24: HuJS007-80 (antibody, V domains shown)
VH: B11 VH with F41P, M49I, N66S
VL: B2 VL with L46P, Y87F
notes: 1A5 VH5 + 4B7VL8; constant regions not specified
B25: HuJS007-89 (antibody, V domains shown)
VH: B11 VH
VL: B2 VL with L46P, Y87F
notes: 1A5 VH6 + 4B7VL8; constant regions not specified
B26: HuJS007-68 (antibody, V domains shown)
VH: B1 VH with T23A
VL: B3 VL with R24Q, V43A, L73F, V83I
notes: 4B7 VH2-4 + 4B7VL5; constant regions not specified
B27: HuJS007-62 (antibody, V domains shown)
VH: B1 VH with Q16E, A26G, H41P
VL: B2 VL with L46P, Y87F
notes: 4B7 VH2-3 + 4B7VL8; constant regions not specified
B28: HuJS007-54 (antibody, V domains shown)
VH: B1 VH
VL: B19 VL with R24K, Y87F
notes: 4B7 VH2-2 + 4B7VL9; constant regions not specified
B29: HuJS007-61 (antibody, V domains shown)
VH: B1 VH with Q16E, A26G, H41P
VL: B19 VL
notes: 4B7 VH2-3 + 4B7VL7; constant regions not specified
B30: HuJS007-78 (antibody, V domains shown)
VH: B11 VH with F41P, M49I, N66S
VL: B2 VL
notes: 1A5 VH5 + 4B7VL6; constant regions not specified
B31: HuJS007-56 (antibody, V domains shown)
VH: B1 VH with Q16E, A26G, H41P
VL: B3 VL
notes: 4B7 VH2-3 + 4B7VL2; constant regions not specified
B32: HuJS007-50 (antibody, V domains shown)
VH: B1 VH
VL: B3 VL with R24Q, V43A, L73F, V83I
notes: 4B7 VH2-2 + 4B7VL5; constant regions not specified
B33: HuJS007-105 (antibody, V domains shown)
VH: B11 VH with S30T, F41P, M49I, Y59N, N99D
VL: B2 VL
notes: 4B7 VH2-5 + 4B7VL6; constant regions not specified
B34: HuJS007-49 (antibody, V domains shown)
VH: B1 VH
VL: B3 VL with S10F, V43A, D70E, V83F
notes: 4B7 VH2-2 + 4B7VL4; constant regions not specified
B35: HuJS007-67 (antibody, V domains shown)
VH: B1 VH with T23A
VL: B3 VL with S10F, V43A, D70E, V83F
notes: 4B7 VH2-4 + 4B7VL4; constant regions not specified
B36: HuJS007-75 (antibody, V domains shown)
VH: B11 VH with F41P, M49I, N66S
VL: B3 VL with V43A, V83F
notes: 1A5 VH5 + 4B7VL3; constant regions not specified
B37: HuJS007-55 (antibody, V domains shown)
VH: B1 VH with Q16E, A26G, H41P
VL: B2 VL with L46P, Y87F, Q100A, I106L
notes: 4B7 VH2-3 + 4B7VL1; constant regions not specified
B38: HuJS007-77 (antibody, V domains shown)
VH: B11 VH with F41P, M49I, N66S
VL: B3 VL with R24Q, V43A, L73F, V83I
notes: 1A5 VH5 + 4B7VL5; constant regions not specified
B39: HuJS007-107 (antibody, V domains shown)
VH: B11 VH with S30T, F41P, M49I, Y59N, N99D
VL: B2 VL with L46P, Y87F
notes: 4B7 VH2-5 + 4B7VL8; constant regions not specified

Biological target: T1, huCTLA-4 ECD (his-tag)
Assay: ELISA, coated huCTLA-4 his
Procedure: HX1 hCTLA4 his was diluted with PBS (Hyclone) to 1.0 μg/mL, and the dilution was added to a microplate at 100 μL/well. The plate was let stand in an incubator at 37° C. and coated for 90 min and then washed, and 2% BSA was added to the plate at 200 μL/well. The plate was incubated in an incubator at 37° C. for 90 min and then washed. The humanized anti-CTLA-4 antibodies in Table 4 and the control antibody (ipilimumab) were diluted with a diluent (2% BSA) to 1000 ng/mL. The dilution performed each time was not higher than 10-fold. Then, the humanized antibodies and the control antibody were serially diluted 2.5-fold on a sample dilution plate. All the humanized antibody solutions and the control antibody solution were added to a microplate at 100 μL/well. The plate was incubated in an incubator at 37° C. for 60 min and then washed. An HRP-conjugated goat anti-human antibody IgG (Fc specific) was diluted 5000-fold with 2% BSA, and the dilution was added to the microplate at 100 μL/well. The plate was incubated in an incubator at 37° C. for 60 min and then washed. The color development solution TMB was added at 100 μL/well, during which bubbles were avoided. Color development was allowed at 37° C. for 15 min in the dark and then terminated by adding 2 M hydrochloric acid solution at 100 μL/well, during which bubbles were avoided. Reading (wavelength: 450/620 nm) was done within 10 min using a microplate reader.

Row | binding result | Binder
1 | binds | B1
2 | binds | B2
3 | binds | B3
4 | binds | B4
5 | binds | B5
6 | binds | B6
7 | binds | B7
8 | binds | B8
9 | binds | B9
10 | binds | B10
11 | binds | B11
12 | binds | B12
13 | binds | B13
14 | binds | B14
15 | binds | B15
16 | binds | B16
17 | binds | B17
18 | binds | B18
19 | binds | B19
20 | binds | B20

Row | binding result | Binder
21 | binds | B21
22 | binds | B22
23 | binds | B23
24 | binds | B24
25 | binds | B25
26 | binds | B26
27 | binds | B27
28 | binds | B28
29 | binds | B29
30 | binds | B30
31 | binds | B31
32 | binds | B32
33 | binds | B33
34 | binds | B34
35 | binds | B35
36 | binds | B36
37 | binds | B37
38 | binds | B38
39 | binds | B39

Source: patent publication US20230295301A1 (SHANGHAI JUNSHI BIOSCIENCES, published 2023)
